We go through two molecules from patent US20220251184A1 (Regeneron, published 2022).

Substitutions are numbered along the chain they refer to.

The target of assay [1] is T1, human BMP6 (R&D Systems, Cat #507-BP) (human, UniProt P22004 375-513, limits assumed).
T1 construct: Bought protein (R&D Systems 507-BP or 507-BP/CF); also called hBMP6; hBMP-6
T1 sequence: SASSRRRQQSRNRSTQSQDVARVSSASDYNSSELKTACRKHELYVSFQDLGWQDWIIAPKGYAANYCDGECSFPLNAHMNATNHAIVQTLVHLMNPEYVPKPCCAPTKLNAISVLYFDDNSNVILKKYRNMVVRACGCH
As to the kind of experiment: SPR (MASS-1), mAb captured on anti-human Fc, hBMP6 in solution, 37 C; calculated with kd fixed at 1.00E-05. How it is done:
(§1) Equilibrium dissociation constants (KD values) for human and mouse BMP6 binding to purified anti-BMP6 monoclonal antibodies of this invention were determined using a real-time surface plasmon resonance (SPR) biosensor instrument, MASS-1. All binding studies were performed in 10 mM HEPES, 150 mM NaCl, 3 mM EDTA, 1 μg/mL Heparin, and 0.05% v/v Surfactant Tween-20, pH 7.4 (HBS-EHT) running buffer at 25° C. and 37° C. The HCA sensor surface was first derivatized by amine coupling the monoclonal mouse anti-human Fc antibody (GE, #BR100839) and anti-BMP6 monoclonal antibodies were individually captured. Different concentrations of human BMP6 reagents (hBMP6; R&D Systems, Cat #507-BP; 60 nM-0.94 nM; 4-fold serial dilution) or mouse BMP6 (mBMP6; R&D Systems, Cat #6325-BM; 60 nM and 15 nM) prepared in HBS-EHT running buffer were injected over the captured anti-BMP6 monoclonal antibody for 4 minutes at a flow rate of 30 μL/minute, while the dissociation of BMP6 reagent bound to captured anti-BMP6 monoclonal antibody was monitored for 10 minutes in HBS-EHT running buffer. Kinetic association (kₐ) and dissociation (kd) rate constants were determined by fitting the real-time binding sensorgrams to a 1:1 binding model with mass transport limitation using Scrubber 2.0c software. […]

For assay [2], the target named is T1, human BMP6 (R&D Systems, Cat #507-BP). As to the kind of experiment: SPR (MASS-1), mAb captured on anti-human Fc, hBMP6 in solution, 37 C; 37 C. How it is done:
as §1

For assay [3] the target is unchanged. As to the kind of experiment: competition ELISA, antibody titrated against 2.5 nM biot-hBMP6, plate-coated hHJV-hFc as competitor; value below the lower limit of quantitation of 1.25E-09 M. How it is done:
These antibody-protein complexes, after a one-hour incubation, were transferred to the microtiter plate coated with hHJV-hFc or hActR2a-hFc. After two hours of incubation at room temperature, the wells were washed, and plate-bound biot-BMP6 was detected with neutravidin conjugated with horseradish peroxidase (HRP) (Thermo Scientific, Cat #31030). The plates were then developed using TMB substrate solution (BD Biosciences, Cat #555214) according to manufacturer's recommendation and absorbance at 450 nm was measured on a Victor X5 plate reader.
Data analysis was performed using a sigmoidal dose-response model within Prism™ software (GraphPad). […] Percent blockade at indicated concentration of the antibody tested was calculated as an indicator of the ability of the antibodies to block the binding of 2.5 nM or 1.5 nM of biot-BMP6 to hHJV-hFc or hActR2a-hFc on the plate, respectively. In the calculation, binding signal of the sample of the constant biot-BMP6 without the presence of the antibody for each assay was referenced as 100% binding or 0% blocking; and the baseline signal of the sample of buffer only without the presence of biot-BMP6 was referenced as 0% binding or 100% blocking.
The isotype control antibody blocked <30% at concentrations up to 300 nM antibody, as expected.
On the technique in general: ELISA stands for enzyme-linked immunosorbent assay.

B1: H4H17871P (antibody, V domains shown)
VH: EVQLVESGGGLVQPGGSLRLSCAASGFTFNNYAMSWVRQAPGKGLEWVSAISGSGDSTYYADSVKGRFTISRDNSKNTLYLQMNSLRAEDTAVYYCAKRSRSSPFDPWGQGTLVTVSS
VL: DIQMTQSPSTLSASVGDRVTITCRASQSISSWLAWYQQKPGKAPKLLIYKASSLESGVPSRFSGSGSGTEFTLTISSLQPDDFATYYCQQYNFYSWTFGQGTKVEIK
notes: Fully human antibody; also called anti-BMP6 monoclonal antibody; BMP6 antibody of the invention
B1: in assay [1], the Kd is not above 0.24 nM and the t1/2 was not below 19.2 h.

B2: H4H17855P (antibody, V domains shown)
VH: B1 VH with N30S, N31S, D56G, S57R, A61T, I70M, S100P, R101Y, S102N
VL: EIVLTQSPGTLSLSPGEGATLSCRASQSVSSSYLAWYQQKPGQAPRLLIYGASSRATGIPDRFSGSGSGTDFTLTISRLEPEDFVVYYCQHFGGTPFTFGGGTKVEIK
notes: as for B1
Molecule B2 registered a koff in assay [2] of 8.17e-05 s⁻¹. Also, the IC50 in assay [3] is 0.522 nM.

One may read the Kd as the concentration at which binding is half-saturated. What is called koff is the first-order rate constant of dissociation. Read a high koff as a short-lived complex. Broadly, the IC50 is the concentration that inhibits the measured activity by half. A high value points to lower potency.
